Holding throughout (assay): fluorescence polarisation
Assay [1] deals with non-phosphorylated (CTD)2 peptide, 5,6-FAM-labelled.
The target of assay [2] is pY1pS5-(CTD)2 peptide, 5,6-FAM-labelled.
Assay [3] deals with pS5-(CTD)2 peptide, 5,6-FAM-labelled.

Turning to “BRCA1 BRCT (BRCA1^1646-1859), wild type (from UniProt P38398 1646-1859) (domain or fragment)”, the results for the Kd in assay [1] and in assay [2] were 948 µM and 184 µM, respectively. In the case of “BRCA1 BRCT R1699L (from UniProt P38398 1646-1859) (domain or fragment)”, the Kd (in general, a measure of binding affinity in units of concentration) in assay [3] stood at 413 µM. On the same count and under the same terms, the same measure for “BRCA1 BRCT^S1655F,K1702M (from UniProt P38398 1646-1859) (domain or fragment)”: 895 µM.

For the origin of these results see paper doi:10.1101/2025.01.22.634233.
